Source: PMC4897736, “Structural and biochemical characterization of the cell fate determining nucleotidyltransferase fold protein MAB21L1” (Scientific Reports, 2016)

Key:
MAB21L1 [1] = target: T1, MAB21L1 (Homo sapiens, UniProt Q13394); test: ITC, thermal shift; assay type: binding
T1 construct: full length
T1 sequence (Q13394 1-359): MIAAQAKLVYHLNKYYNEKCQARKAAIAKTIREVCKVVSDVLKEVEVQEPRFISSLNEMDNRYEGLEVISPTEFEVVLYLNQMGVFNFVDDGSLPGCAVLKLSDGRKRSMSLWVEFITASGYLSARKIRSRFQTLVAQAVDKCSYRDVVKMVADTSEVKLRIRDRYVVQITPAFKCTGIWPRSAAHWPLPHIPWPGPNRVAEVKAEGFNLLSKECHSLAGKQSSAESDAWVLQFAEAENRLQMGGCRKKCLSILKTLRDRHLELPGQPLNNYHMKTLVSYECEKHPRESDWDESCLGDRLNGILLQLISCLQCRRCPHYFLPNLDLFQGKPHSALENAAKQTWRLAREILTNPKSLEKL

MAB21L1 [2] = target: T1, MAB21L1; test: co-crystal structure ([…] Å), ITC, thermal shift; assay type: binding
MAB21L1 [3] = target: T2, MAB21L1 (Homo sapiens, UniProt Q13394 1-359); test: EMSA; 0.5 uM nucleic acid; EMSA: 20 mM Tris pH 8.0, 200 mM NaCl, 30 min on ice, 1% agarose gel, Gel-Red stain; conditions: protein: recombinant; tags: His-MBP tag removed by TEV; label: none (Gel-Red stain); single strand
T2 sequence: T1 sequence (Q13394 1-359)

MAB21L1 [4] = target: T2, MAB21L1; test: EMSA; 1 uM nucleic acid; EMSA: 20 mM Tris pH 8.0, 200 mM NaCl, 30 min on ice, 1% agarose gel, Gel-Red stain; conditions: protein: recombinant; tags: His-MBP tag removed by TEV; label: none (Gel-Red stain); blunt

`Nc1ncnc2c1ncn2[C@@H]1O[C@H](COP(=O)(O)OP(=O)(O)OP(=O)(O)O)[C@@H](O)[C@H]1O` [ATP] was tested. Which Kd (MAB21L1 [1]) did it give?
The Kd was 340 nM.

How did the Kd (MAB21L1 [1]) turn out when `Nc1ncnc2c1ncn2[C@@H]1O[C@H](COP(=O)(O)OP(=O)(O)O)[C@@H](O)[C@H]1O` [ADP] was run?
The Kd was 3100 nM.

Which Kd (MAB21L1 [2]) does the source give for `Nc1ccn([C@@H]2O[C@H](COP(=O)(O)OP(=O)(O)OP(=O)(O)O)[C@@H](O)[C@H]2O)c(=O)n1` [CTP] here?
Its Kd is 410 nM.

For GGATACGTAACAACGCTTATGCATCGCCCCGCTACATCCCTGAGCTGAC (ssDNA) [50mer ssDNA], which “apparent K (half saturation)” value (MAB21L1 [3]) is on record?
Its value is 6.7 µM.

B1: 50mer dsDNA (dsDNA)
DNA 1: GGATACGTAACAACGCTTATGCATCGCCCCGCTACATCCCTGAGCTGAC
DNA 2: GTCAGCTCAGGGATGTAGCGGGGCGATGCATAAGCGTTGTTACGTATCC
B1 was tested. Which “apparent K (half saturation)” value (MAB21L1 [4]) did it give?
Its value is 6 µM.

For GGAUACGUAACAACGCUUAUGCAUCGCCCCGCUACAUCCCUGAGCUGAC (ssRNA) [50mer ssRNA], which “apparent K (half saturation)” value (MAB21L1 [3]) is on record?
The value was 3.3 µM.

B2: 50mer dsRNA (dsRNA)
RNA 1: GGAUACGUAACAACGCUUAUGCAUCGCCCCGCUACAUCCCUGAGCUGAC
RNA 2: GUCAGCUCAGGGAUGUAGCGGGGCGAUGCAUAAGCGUUGUUACGUAUCC
B2 was tested. Which “apparent K (half saturation)” value (MAB21L1 [4]) did it give?
The value was 5 µM.
